From patent US20260234232A1 (QUAERITE BIOPHARM RESEARCH BEIJING, published 2026)
Where a chain is given by its changes, count along the chain named. Where two headings read alike, the source gives them in different places.

Assays:
human VEGFA165 [1] = target: T1, human VEGFA165 (human, UniProt P15692-4 27-191); assay: ELISA, coated human VEGFA165, anti-His detection
T1 construct: Bought protein from two suppliers, treated as one molecule; the supplier is named under assay; also called antigen VEGFA
Procedure: (§1) Antigen human VEGFA165 (label-free, purchased from Sino Biological, Cat. No.: HPLC-10008-HNAH, hereinafter referred to as VEGFA) was diluted with ELISA coating buffer to a final concentration of 0.3 μg/mL and added to a microplate at 100 μL/well for coating at 4° C. overnight. […] The solution used for antibody dilution was PBS containing 0.1% Tween-20 (pH 7.4), i.e., PBST. After being incubated at 37° C. for 1 h, the microplate was washed 3 times with PBST, and a dilution of His-Tag murine monoclonal antibody (purchased from Proteintech, Cat. No.: 66005-1-Ig) was added. The plate was further incubated at 37° C. for 1 h and washed again. Subsequently, a dilution of HRP-labeled goat anti-mouse IgG antibody (HRP-conjugated Affinipure Goat Anti-Mouse IgG (H+L), purchased from Proteintech, Cat. No.: SA00001-1) was added, and the plate was incubated at room temperature for 45 min. After the plate was washed, 100 μL of TMB (purchased from Tiangen Biotech, Cat. No.: PA107-01) was added to each well for color development at 37° C. for 15 min, followed by the addition of 50 μL of stopping solution. The absorbance at 450 nm (OD450) was measured using a microplate reader.
The experimental procedure was the same as that described in “2.

human VEGFA165 [2] = target: T1, human VEGFA165; assay: SPR Biacore 8K, VEGFA165 on CM5, nanobody analyte, 1:1 fit
Procedure: Using the Biacore 8K instrument (Cytiva), the antigen VEGFA165 (label-free, purchased from Sino Biological, Cat. No.: HPLC-10008-HNAH) as the ligand was coupled onto a CM5 chip through amino-coupling reagents (EDC and NHS), with the coupling level being about 400 RU. The mobile phase buffer was HBS-EP (0.01 M HEPES pH 7.4, 0.15 M NaCl, 3 mM EDTA, 0.005% v/v Tween 20) during the experiment. […] In the kinetic analysis, the binding time between the antigen and the antibody was 240 s, the dissociation time was 1500 s, and the flow rate was 30 μL/min. In a multi-cycle mode, the chip was regenerated with 100 mM hydrochloric acid.

human VEGFA165 [3] = target: T1, human VEGFA165; assay: ELISA, coated human VEGFA165, anti-His detection; remark: listed apart in the source
Procedure: as §1
The purified bivalent humanized nanobodies were evaluated for their VEGFA binding activity, and the experimental procedure was the same as that described in “2.

human VEGFA165 [4] = target: T1, human VEGFA165; assay: competitive ELISA, coated VEGFA, competitor VEGFR2-ECD-Fc 1 nM
Procedure: Antigen VEGFA was diluted with ELISA coating buffer (final concentration of […]) and added to a 96-well microplate at 100 μL/well for coating at 4° C. overnight. […] The plate was incubated at 37° C. for 1 h and washed 3 times with PBST. Subsequently, a dilution of HRP-labeled goat anti-human IgG antibody (HRP-conjugated Goat Anti-Human IgG, purchased from Proteintech, Cat. No.: A21050) was added, and the plate was further incubated at room temperature for 45 min. After the plate was washed, 100 μL of TMB (purchased from Tiangen Biotech, Cat. No.: PA107-01) was added to each well for color development at 37° C. for 15 min, followed by the addition of 50 μL of stopping solution. The absorbance at 450 nm (OD450) was measured using a microplate reader.

human VEGFA165 [5] = target: T1, human VEGFA165; assay: ELISA, coated human VEGFA165, anti-His detection; remark: listed apart in the source
Procedure: as §1

human VEGFA165 [6] = target: T1, human VEGFA165; assay: competitive ELISA, coated VEGFA, competitor VEGFR2-ECD-Fc 1 nM; remark: listed apart in the source

T1 sequence (P15692 other isoform, or with tags, fused parts or gaps limits assumed): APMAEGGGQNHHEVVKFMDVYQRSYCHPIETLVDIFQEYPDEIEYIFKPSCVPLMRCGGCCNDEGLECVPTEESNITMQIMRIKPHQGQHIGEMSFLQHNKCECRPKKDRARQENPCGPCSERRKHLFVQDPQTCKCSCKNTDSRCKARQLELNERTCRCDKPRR

B1: V1 (VHH)
VHH: QLQLVESGGGSVQPGGSLRLSCEVSGRTFSSYTMGWFRQAPGKEREFVVAISKGGYKYDSVSLEARFTISKDNTKNTVYLQMNSLKPEDTAVYYCAATRAYGSSRLRLADTYEYWGQGTQVTVSS
notes: Monovalent nanobody; tag not described here, the ELISA detects a His tag
EC50 (human VEGFA165 [1]): 520 pM

B2: V43 (VHH)
VHH: B1 VHH with S30T, A97G, D110N
notes: as for B1
Kd (human VEGFA165 [2]): 116 pM | koff (human VEGFA165 [2]): 8.63e-05 s⁻¹ | kon (human VEGFA165 [2]): 743000 M⁻¹ s⁻¹ | EC50 (human VEGFA165 [1]): 310 pM

B3: V31 (VHH)
VHH: B1 VHH with S30A, S60A, A97G, D110K
notes: as for B1
EC50 (human VEGFA165 [1]): 770 pM

B4: 2V1-DP-9GS (VHH)
chain: EVQLVESGGGLVQPGGSLRLSCAVSGRTFSSYTMGWFRQAPGKEREFVVAISKGGYKYDSVSLEARFTISRDNSKNTVYLQMNSLRPEDTAVYYCAATRAYGSSRLRLADTYEYWGQGTLVTVSSGGGGSGGGSEVQLVESGGGLVQPGGSLRLSCAVSGRTFSSYTMGWFRQAPGKEREFVVAISKGGYKYDSVSLEARFTISRDNSKNTVYLQMNSLRPEDTAVYYCAATRAYGSSRLRLADTYEYWGQGTLVTVSS
notes: Tandem bivalent humanized nanobody
EC50 (human VEGFA165 [3]): 230 pM

B5: 2V1-SA1-NL (VHH)
chain: EVQLVESGGGLVQPGGSLRLSCAVSGRTFSSYTMGWFRQAPGKEREFVVAISKGGYKYDSVSLEARFTISRDNAKNTVYLQMNSLRPEDTAVYYCAATRAYGSSRLRLADTYEYWGQGTLVTVSSEVQLVESGGGLVQPGGSLRLSCAVSGRTFSSYTMGWFRQAPGKEREFVVAISKGGYKYDSVSLEARFTISRDNAKNTVYLQMNSLRPEDTAVYYCAATRAYGSSRLRLADTYEYWGQGTLVTVSS
notes: as for B4
EC50 (human VEGFA165 [3]): 280 pM

B6: 2V15-4m-NL (VHH)
chain: B5 chain with V24A, S30A, A97G, D110E, V149A, S155A, A222G, D235E
notes: as for B4
EC50 (human VEGFA165 [3]): 190 pM

B7: 2V13-4m-NL (VHH)
chain: B5 chain with V24A, S30T, S60A, A97G, V149A, S155T, S185A, A222G
notes: as for B4
EC50 (human VEGFA165 [3]): 220 pM

B8: 2V40-3H-2m-NL (VHH)
chain: B5 chain with V24A, D59N, S60A, A74S, D110K, V149A, D184N, S185A, A199S, D235K
notes: as for B4
EC50 (human VEGFA165 [3]): 260 pM

B9: 2V1-DP-3GS (VHH)
chain: EVQLVESGGGLVQPGGSLRLSCAVSGRTFSSYTMGWFRQAPGKEREFVVAISKGGYKYDSVSLEARFTISRDNSKNTVYLQMNSLRPEDTAVYYCAATRAYGSSRLRLADTYEYWGQGTLVTVSSGGSEVQLVESGGGLVQPGGSLRLSCAVSGRTFSSYTMGWFRQAPGKEREFVVAISKGGYKYDSVSLEARFTISRDNSKNTVYLQMNSLRPEDTAVYYCAATRAYGSSRLRLADTYEYWGQGTLVTVSS
notes: as for B4
EC50 (human VEGFA165 [3]): 270 pM

B10: 2V1-SA1-3GS (VHH)
chain: B9 chain with S74A, S202A
notes: as for B4
EC50 (human VEGFA165 [3]): 260 pM

B11: 2V15-4m-3GS (VHH)
chain: B9 chain with V24A, S30A, S74A, A97G, D110E, V152A, S158A, S202A, A225G, D238E
notes: as for B4
EC50 (human VEGFA165 [3]): 240 pM

B12: 2V30-2H-2m-3GS (VHH)
chain: B9 chain with V24A, S60A, D110K, V152A, S188A, D238K
notes: as for B4
EC50 (human VEGFA165 [3]): 940 pM

B13: 2V43-1H-2m-3GS (VHH)
chain: B9 chain with V24A, D110N, V152A, D238N
notes: as for B4
EC50 (human VEGFA165 [3]): 1190 pM

B14: 2V41-9GS (VHH)
chain: QLQLVESGGGSVQPGGSLRLSCEVSGRTFSSYTMGWFRQAPGKEREFVVAISKGGYKYDSVSLEARFTISKDNTKNTVYLQMNSLKPEDTAVYYCAGTRAYGSSRLRLAKTYEYWGQGTQVTVSSGGGGSGGGSQLQLVESGGGSVQPGGSLRLSCEVSGRTFSSYTMGWFRQAPGKEREFVVAISKGGYKYDSVSLEARFTISKDNTKNTVYLQMNSLKPEDTAVYYCAGTRAYGSSRLRLAKTYEYWGQGTQVTVSS
notes: Tandem bivalent nanobody
IC50 (human VEGFA165 [4]): 1970 pM | EC50 (human VEGFA165 [5]): 270 pM

B15: V30-V40 (bispecific antibody)
chain: B14 chain with E44G, S60A, G97A, S164T, D193N, S194A, G231A
IC50 (human VEGFA165 [6]): 3320 pM | Maximum inhibition rate (%) (human VEGFA165 [6]): 89.8% | EC50 (human VEGFA165 [5]): 310 pM

B16: V1-V30 (bispecific antibody)
chain: B14 chain with G97A, K110D, E178G, S194A, G231A
IC50 (human VEGFA165 [6]): 2840 pM | Maximum inhibition rate (%) (human VEGFA165 [6]): 91.1% | EC50 (human VEGFA165 [5]): 310 pM

B17: V1-V15 (bispecific antibody)
chain: B14 chain with G97A, K110D, S164A, K244E
IC50 (human VEGFA165 [6]): 3800 pM | Maximum inhibition rate (%) (human VEGFA165 [6]): 87.8% | EC50 (human VEGFA165 [5]): 290 pM

B18: V15-V40 (bispecific antibody)
chain: B14 chain with S30A, K110E, S164T, D193N, S194A, G231A
IC50 (human VEGFA165 [6]): 4060 pM | Maximum inhibition rate (%) (human VEGFA165 [6]): 90.1% | EC50 (human VEGFA165 [5]): 260 pM

B19: 2V33-9GS (VHH)
chain: B14 chain with G97A, G231A
notes: Tandem bivalent nanobody
IC50 (human VEGFA165 [4]): 3480 pM | EC50 (human VEGFA165 [5]): 320 pM

B20: V1-V40 (bispecific antibody)
chain: B14 chain with G97A, K110D, S164T, D193N, S194A, G231A
IC50 (human VEGFA165 [6]): 3740 pM | Maximum inhibition rate (%) (human VEGFA165 [6]): 88.5% | EC50 (human VEGFA165 [5]): 420 pM

B21: V15-V30 (bispecific antibody)
chain: B14 chain with S30A, K110E, E178G, S194A, G231A
IC50 (human VEGFA165 [6]): 3220 pM | Maximum inhibition rate (%) (human VEGFA165 [6]): 91.2% | EC50 (human VEGFA165 [5]): 410 pM

B22: 2V43-9GS (VHH)
chain: B14 chain with S30T, K110N, S164T, K244N
notes: Tandem bivalent nanobody
EC50 (human VEGFA165 [5]): 170 pM | EC50 (human VEGFA165 [1]): 170 pM

B23: 2V36-9GS (VHH)
chain: B14 chain with S30A, K110D, S164A, K244D
notes: Tandem bivalent nanobody
IC50 (human VEGFA165 [4]): 3000 pM | EC50 (human VEGFA165 [5]): 300 pM

B24: 2V30-9GS (VHH)
chain: B14 chain with E44G, S60A, G97A, E178G, S194A, G231A
notes: Tandem bivalent nanobody
Kd (human VEGFA165 [2]): 22.2 pM | koff (human VEGFA165 [2]): 9.29e-05 s⁻¹ | kon (human VEGFA165 [2]): 4.18e+06 M⁻¹ s⁻¹ | IC50 (human VEGFA165 [4]): 1410 pM | EC50 (human VEGFA165 [5]): 250 pM

B25: 2V29-9GS (VHH)
chain: B14 chain with K110N, K244N
notes: Tandem bivalent nanobody
IC50 (human VEGFA165 [4]): 1770 pM | EC50 (human VEGFA165 [5]): 310 pM

B26: 2V31-9GS (VHH)
chain: B14 chain with S30A, S60A, S164A, S194A
notes: Tandem bivalent nanobody
EC50 (human VEGFA165 [5]): 310 pM | EC50 (human VEGFA165 [1]): 310 pM
